This note sets out measurements from patent US20220064329A1 (Novo Nordisk, published 2022).

T1: recombinant human activated Factor VII (FVIIa) (human, UniProt P08709 61-212; P08709 213-466, ten glutamate residues of the Gla domain may be gamma-carboxylated)
T1 sequence 1: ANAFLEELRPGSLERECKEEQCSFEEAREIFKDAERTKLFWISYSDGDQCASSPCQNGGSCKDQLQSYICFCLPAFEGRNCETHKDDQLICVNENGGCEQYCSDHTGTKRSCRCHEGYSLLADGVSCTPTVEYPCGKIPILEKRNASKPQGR
T1 sequence 2: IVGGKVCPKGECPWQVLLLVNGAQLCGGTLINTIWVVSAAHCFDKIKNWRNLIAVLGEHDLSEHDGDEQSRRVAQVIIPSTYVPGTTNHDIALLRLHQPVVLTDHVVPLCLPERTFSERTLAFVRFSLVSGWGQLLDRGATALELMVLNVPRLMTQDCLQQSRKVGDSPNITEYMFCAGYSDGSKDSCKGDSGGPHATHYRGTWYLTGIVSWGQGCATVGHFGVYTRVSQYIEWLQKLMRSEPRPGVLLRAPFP

T2: recombinant human activated Factor VII (FVIIa) (human, UniProt P08709 61-212; P08709 213-466, Gla domain: ten glutamate residues may be gamma-carboxylated)
T2 construct: two-chain form after cleavage between Arg152 and Ile153; light chain (Gla, EGF domains) and heavy chain (protease domain) tethered by a disulfide bond; also called rFVIIa; human FVIIa
T2 sequence 1: T1 sequence 1
T2 sequence 2: T1 sequence 2

B1: mAb0137(OA) (antibody, human IgG4 S228P, kappa)
heavy: not shown
light: EIVLTQSPATLSLSPGERATLSCRASQGISDYLHWYQQKPGEAPRLLIKYTSQPATGIPARFSGSGSGTDFTLTISSLEPEDVGVYYCQNGHSFPLTFGAGTKLELKRTVAAPSVFIFPPSDEQLKSGTASVVCLLNNFYPREAKVQWKVDNALQSGNSQESVTEQDSKDSTYSLSSTLTLSKADYEKHKVYACEVTHQGLSSPVTKSFNRGEC
chain: VESKYGPPCPPCPAPEFLGGPSVFLFPPKPKDTLMISRTPEVTCVVVDVSQEDPEVQFNWYVDGVEVHNAKTKPREEQFNSTYRVVSVLTVLHQDWLNGKEYKCKVSNKGLPSSIEKTISKAKGQPREPQVYTLPPSQEEMTKNQVSLTCLVKGFYPSDIAVEWESNGQPENNYKTTPPVLDSDGSFLLYSKLTVDKSRWQEGNVFSCSVMHEALHNHYTQKSLSLSLGK
B2: mAb0139(OA) (antibody, human IgG4 S228P, kappa)
heavy: not shown
light: B1 light
chain: B1 chain
B3: mAb0112 (antibody, human IgG4 S228P, kappa, V domains shown)
VH: DVQLQESGPGLVEPSQTLSLTCTVSGYSITSDSAWSWIRQFPGKKLEWMGYIQYSGSTNYNPSLKSRVTISRDTSKNQFSLKLSSVTAEDTAVYYCARSVNYYGNSFWVGYWGQGTSVTVSS
VL: EIVLTQSPATLSLSPGERATLSCRASQGISDYLHWYQQKPGEAPRLLIKYTSQPATGIPARFSGSGSGTDFTLTISSLEPEDVGVYYCQNGHSFPLTFGAGTKLELKR
notes: humanized 11F2 variant, first round
B4: mAb0110 (antibody, human IgG4 S228P, kappa, V domains shown)
VH: B3 VH with E13K, T30S, F41P, K45G, M49I, E89A, G110D, Y111P, S117L
VL: DIVMTQSPATLSVTAGDRVSLSCRASQGISDYLHWYQQKSHESPRLLIKYTSQPVSGIPSRFSGSGSGSEFTLSINSVEPEDVGVYYCQNGHSFPLTFGAGTKLELKR
notes: as for B3
B5: mAb0113 (antibody, human IgG4 S228P, kappa)
heavy: not shown
light: B1 light
notes: as for B3
B6: mAb0114 (antibody, human IgG4 S228P, kappa, V domains shown)
VH: B3 VH with E89A, W108A
VL: B3 VL
notes: as for B3
B7: mAb0115 (antibody, human IgG4 S228P, kappa, V domains shown)
VH: B3 VH with F41P, W108A
VL: B3 VL
notes: as for B3
B8: mAb0116 (antibody, human IgG4 S228P, kappa, V domains shown)
VH: B3 VH with W108A, G110D
VL: B3 VL
notes: as for B3
B9: mAb0109 (antibody, human IgG4 S228P, kappa, V domains shown)
VH: DVQLQESGPGLVEPSQSLSLTCTVTGYSITSDSAWSWIRQFPGNKLEWMGYIQYSGSTNYNPSLKSRISVTRDTSKNQFFLRLSSVTAEDTATYYCTRSVNYYGNSFAVGYWGQGTSVTVSS
VL: B3 VL with N90S
notes: as for B3
B10: VH SEQ ID NO 650 / VL SEQ ID NO 422 (antibody, IgG4, V domains shown)
VH: B3 VH with D1Q, E13K, T30S, F41P, M49I, E89A, W108A, Y111P, S117L
VL: EIVLTQSPATLSLSPGERATLSCRASQGVSDYLAWYQQKPGQAPRLLIKYASQPATGIPARFSGSGSGTDFTLTISSLEPEDFAVYYCQQGHSFPLTFGQGTKLEIK
notes: humanized 11F2; IgG4 S228P/kappa
B11: VH SEQ ID NO 514 / VL SEQ ID NO 342 (antibody, IgG4, V domains shown)
VH: B3 VH with D1Q, Q16D, T23A, F41P, M49I, I70M, E89L, W108A, S117L
VL: B10 VL with V29I, A34H, A51T, T69R, Q90N, Q100A, I106L
notes: as for B10
B12: VH SEQ ID NO 514 / VL SEQ ID NO 326 (antibody, IgG4, V domains shown)
VH: B3 VH with D1Q, Q16D, T23A, F41P, M49I, I70M, E89L, W108A, S117L
VL: B10 VL with V29I, A34H, Q42E, A51T, A84G, Q90N, Q100A, I106L
notes: as for B10
B13: VH SEQ ID NO 650 / VL SEQ ID NO 470 (antibody, IgG4, V domains shown)
VH: B3 VH with D1Q, E13K, T30S, F41P, M49I, E89A, W108A, Y111P, S117L
VL: B10 VL with A34H, Q90N
notes: as for B10
B14: VH SEQ ID NO 650 / VL SEQ ID NO 446 (antibody, IgG4, V domains shown)
VH: B3 VH with D1Q, E13K, T30S, F41P, M49I, E89A, W108A, Y111P, S117L
VL: B10 VL with A51T, Q90N
notes: as for B10
B15: VH SEQ ID NO 650 / VL SEQ ID NO 454 (antibody, IgG4, V domains shown)
VH: B3 VH with D1Q, E13K, T30S, F41P, M49I, E89A, W108A, Y111P, S117L
VL: B10 VL with A34H, Q42E, Q90N
notes: as for B10
B16: VH SEQ ID NO 650 / VL SEQ ID NO 478 (antibody, IgG4, V domains shown)
VH: B3 VH with D1Q, E13K, T30S, F41P, M49I, E89A, W108A, Y111P, S117L
VL: B10 VL with A34H
notes: as for B10
B17: VH SEQ ID NO 650 / VL SEQ ID NO 430 (antibody, IgG4, V domains shown)
VH: B3 VH with D1Q, E13K, T30S, F41P, M49I, E89A, W108A, Y111P, S117L
VL: B10 VL with A84G, Q90N
notes: as for B10
B18: VH SEQ ID NO 650 / VL SEQ ID NO 462 (antibody, IgG4, V domains shown)
VH: B3 VH with D1Q, E13K, T30S, F41P, M49I, E89A, W108A, Y111P, S117L
VL: B10 VL with A34H, Q90N, Q100A
notes: as for B10
B19: VH SEQ ID NO 650 / VL SEQ ID NO 494 (antibody, IgG4, V domains shown)
VH: B3 VH with D1Q, E13K, T30S, F41P, M49I, E89A, W108A, Y111P, S117L
VL: B10 VL with A34H, F83V, Q90N
notes: as for B10
B20: VH SEQ ID NO 650 / VL SEQ ID NO 486 (antibody, IgG4, V domains shown)
VH: B3 VH with D1Q, E13K, T30S, F41P, M49I, E89A, W108A, Y111P, S117L
VL: B10 VL with A34H, A84G, Q90N
notes: as for B10
B21: VH SEQ ID NO 650 / VL SEQ ID NO 438 (antibody, IgG4, V domains shown)
VH: B3 VH with D1Q, E13K, T30S, F41P, M49I, E89A, W108A, Y111P, S117L
VL: B10 VL with F83V, Q90N
notes: as for B10
B22: VH SEQ ID NO 650 / VL SEQ ID NO 502 (antibody, IgG4, V domains shown)
VH: B3 VH with D1Q, E13K, T30S, F41P, M49I, E89A, W108A, Y111P, S117L
VL: B10 VL with A34H, A51T, Q90N
notes: as for B10
B23: mAb0013 (antibody, V domains shown)
VH: QIQLVQSGPELKKPGETVKISCKASGYTFTDYSIQWVKQAPGKGLKWMGWINTETGKPSYADDLKGRSAFSLETSGSTAYLQISNLKNEDMATYFCVRDDYYGREDYWGQGTTLTVSS
VL: DIVMTQSPSSLTVTAGEKVTVSCKSSQSLLNSGDQKNYLTWYQQKPGQPPKLLIYWASTRESGVPDRFTGSGSGTDFTLTISSVQAEDLAVYYCQNDFSYPYTFGGGTKLEIK
B24: mAb7250 (antibody, V domains shown)
VH: EVQLVESGGGLVKPGGSLRLSCAASGFTFTSYSMSWVRQAPGKGLEWVSSISSRSSYICYADSVKGRFTISRDNAKNSLYLQMNSLRAEDTAVYYCAREGDTGSIGGDYMDVWGKGTTVTVSS
VL: not shown
B25: mAb0701 (antibody, V domains shown)
VH: QIQLQQSGPELVKPGTSVKMACKASDYTFTDYYLHWVKQRPGQGLEWIGWIYPGSGNTKFNEKFKGKATLTVDTSSSTAYMHLSSLTSDDTAVYFCTRVLGRGAMDYWGQGTSVTVSS
VL: DIVLTQSPPSLAVSLGQRAIISCKASQSVSFAGTSLMYWYQQKPGQQPKVLMYRASNLEAGVPIRFSGSGSGTDFTLNIHPVEEDDVATYYCQQSREYPYTFGGGTKLEIK

Residue numbers refer to the chain shown, from its start. Names may count otherwise.

For one assay, the target named is T1, recombinant human activated Factor VII …. Kind of assay: cell-based or functional assay.
Turning to B1, the “AT inhibition (kinh %)” value was determined as 105% and the “TGT activity (%% FVIIa)” value is 102%.

Turning to B2, the “AT inhibition (kinh %)” value is 110% and the “TGT activity (%% FVIIa)” value was determined as 100%.

Another assay addresses T2, recombinant human activated Factor VII …. Nature of the assay: Bio-Layer Interferometry (Fortebio), antibody on anti-human tips, FVIIa 25-200 nM. On the procedure: All steps were performed in running buffer (20 mM HEPES buffer (pH 7.4), 150 mM NaCl, 5 mM CaCl2, 0.03% Tween 20, 1 mg/ml IgG-free BSA) at […] Antibodies were captured on anti-human tips (AHC, Fortebio) for 3 min at a concentration of 10 ug/ml. This was followed by a 3 min incubation to establish a baseline. Following this, association was monitored for 3 min using four different concentrations of VIIa (25 nm, 50 nM, 100 nM, and 200 nM), followed by a 3 mi dissociation. Sensorgrams were analysed using Fortebio data analysis software.
As a reminder, the Kd is the constant that tells how readily two partners part at equilibrium. Regarding B3, the Kd is 13 nM.

On to B4, for which the Kd was 42000 nM.

For B5, the Kd is 1.8 nM.

As for B6, the Kd came to 1.5 nM.

As for B7, the dissociation constant Kd worked out at 1.5 nM.

For B8, the Kd was 32 nM.

On to B9, for which the Kd was found to be 11 nM.

A further assay concerns the target T1, recombinant human activated Factor VII …. Kind of assay: BLI (Fortebio). On the technique in general: In BLI a coated tip is dipped into the sample, and binding shifts an interference pattern.
B10: the Kd turned out to be 2600 nM.

Regarding B11, the Kd is 1.3 nM.

Turning to B12, the Kd stood at 0.75 nM.

B13: the Kd came out at 1.6 nM.

B14: the dissociation constant (Kd) amounted to 39 nM.

With B15, the Kd is 1.4 nM.

Take B16: the Kd came to 3 nM.

For B17, the Kd was found to be 28 nM.

Consider B18, for which the Kd stood at 1.6 nM.

Consider B19, for which the Kd is 1.6 nM.

As for B20, the Kd was 1.3 nM.

Turning to B21, the Kd came to 28 nM.

For B22, the Kd amounted to 1.3 nM.

In another assay the target is T2, recombinant human activated Factor VII …. Kind of assay: cell-based or functional assay.
As to B23, the “AT inhibition (kinh %)” value is 747% and the “TGT activity (% FVIIa)” value is 128 % FVIIa.

For B24, the “AT inhibition (kinh %)” value was 23% and the “TGT activity (% FVIIa)” value came to 91 % FVIIa.

As to B25, the “AT inhibition (kinh %)” value amounted to 26% and the “TGT activity (% FVIIa)” value turned out to be 88 % FVIIa.
